Measured values published in patent publication US20210093695A1, “Method” (APITOPE TECHNOLOGY (BRISTOL) LIMITED, priority 2017, published 2021).

Key:
[1] = system: HLA-DQ6; experiment: HLA-DQ6 binding of MBP peptides; design: species or system human
[2] = target: HLA-DR2 (Homo sapiens, UniProt P01903+P01911); experiment: HLA-DR2 binding of MBP peptides
[3] = system: double-transgenic (DTg; human HLA-DR15/MBP-specific T-cell receptor) humanized mice; experiment: SCH-induced EAE in double-transgenic humanized mice, clinical score; assay type: in vivo, mouse; settings: once weekly from Day 0; ATX-MS-1467 100 μg/dose, MBP82-98 12 μg or 100 μg/dose
Method: In double-transgenic (DTg; human HLA-DR15/MBP-specific T-cell receptor) ‘humanized’ mice, EAE was induced using an emulsification of spinal cord homogenate (SCH) and CFA on Day 0. Mice also received a pertussis toxin injection on Days 0 and 2.
Throughout the study, neurological deficits were measured using a standardized clinical score scale: 0=no clinical signs, 1=limp tail, 2=impaired righting reflex, 3=partial hind limb paralysis, 4=complete hind limb paralysis, 5=moribund/death.
If animals reached a score of 4 they were euthanized to reach a humane endpoint.
[…] were treated prophylactically either with subcutaneous (sc) phosphate-buffered saline (PBS) vehicle or ATX-MS-1467 (n=10 per treatment group) starting 3 weeks before EAE induction. […]
ATX-MS-1467 was tested head-to-head with MBP82-98 and GA. […] For both compounds, the human equivalent dose (HED) was calculated based on body surface area: MBP82-98=12 μg/dose and GA=75 μg (3.75 mg/kg)/dose.
Statistical analyses for significant differences on clinical scores by treatment over time and cumulative clinical scores (area under the curve) were performed using Kruskal-Wallis with Dunn's post hoc analysis of comparisons. Disease onset was analyzed by Kaplan-Meier curve and significance was determined using the log-rank (Mantel-Cox) test. Cellular brain infiltrates were analyzed by Student's t-test. […]

[4] = system: DR2/Ob1Het/Het mice; experiment: Serum cytokine levels after s.c. treatment/challenge (Milliplex); assay type: in vivo, mouse
Method: Double transgenic heterozygous mice, referred to here as DR2/Ob1Het/Het, were used for these studies. These mice express human leukocyte antigen (HLA) isotypes DRA*0101 and DRB1*1501 under the mouse major histocompatibility […] promoter and the MBP84-102-specific TCR (Ob.1A12) expressed under mouse TCRα and β promoter/enhancer elements.
DR2/Ob1Het/Het mice were treated and/challenged by a single or multiple subcutaneous (s.c.) injections of 100 μg of ATX-MS-1467 or 25 μg of a HLA binding protein (HLAbp) unrelated to EAE and/or 30-1000 μg of myelin basic protein (MBP, Sigma, M1891). Treatment paradigms varied between studies and groups (see specifics in each study). Chronic treatment with ATX-MS-1467 or with HLAbp followed a 3× weekly regimen.
Cytokine levels were quantified in serum of DR2/Ob1Het/Het mice at different time points using a Milliplex MAP mouse Cytokine/Chemokine magnetic kit (MCYTOMAG-70-PMX).

Chain of HLA-DR2 (P01903 26-254): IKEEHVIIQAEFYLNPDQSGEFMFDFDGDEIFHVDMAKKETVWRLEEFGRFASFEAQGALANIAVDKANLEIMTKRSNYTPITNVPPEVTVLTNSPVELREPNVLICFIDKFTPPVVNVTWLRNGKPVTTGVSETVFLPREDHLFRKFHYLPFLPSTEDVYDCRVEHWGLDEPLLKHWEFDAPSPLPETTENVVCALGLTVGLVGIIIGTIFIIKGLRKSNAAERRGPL
Chain of HLA-DR2 (P01911 30-266): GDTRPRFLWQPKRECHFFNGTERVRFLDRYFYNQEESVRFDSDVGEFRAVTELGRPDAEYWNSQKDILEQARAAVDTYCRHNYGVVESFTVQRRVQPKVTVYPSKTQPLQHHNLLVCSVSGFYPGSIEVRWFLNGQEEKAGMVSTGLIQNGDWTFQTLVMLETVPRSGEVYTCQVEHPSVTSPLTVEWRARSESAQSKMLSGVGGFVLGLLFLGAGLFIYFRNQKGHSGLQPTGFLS

HLA-DQ6 binding [1] | HLA-DR2 binding [2] | Molecule | further results
HLA-DQ6 binding | – | H-Ala-Ser-Asp-Tyr-Lys-Ser-Ala-His-Lys-Gly-Phe-Lys-Gly-Val-Asp-NH2 (H-ASDYKSAHKGFKGVD-NH2) [MBP 131-145] | –
– | HLA-DR2 binding | H-Glu-Asn-Pro-Val-Val-His-Phe-Phe-Lys-Asn-Ile-Val-Thr-Pro-Arg-Thr-Pro-NH2 (H-ENPVVHFFKNIVTPRTP-NH2) [MBP 83-99] | –
– | – | MBP82-98: 17-amino acid synthetic peptide identical to MBP (dirucotide) | disease severity vs vehicle [3]: did not show significant effects
HLA-DQ6 binding | – | H-Pro-Arg-His-Arg-Asp-Thr-Gly-Ile-Leu-Asp-Ser-Ile-Gly-Arg-Phe-NH2 (H-PRHRDTGILDSIGRF-NH2) [MBP 30-44] | –
– | HLA-DR2 binding | H-Gly-Phe-Lys-Gly-Val-Asp-Ala-Gln-Gly-Thr-Leu-Ser-Lys-Ile-Phe-NH2 (H-GFKGVDAQGTLSKIF-NH2) [MBP 140-154] | –
– | – | MBP: myelin basic protein (MBP, Sigma, M1891), full length (protein, UniProt P02686 1-304, looked up) Myelin basic protein: MGNHAGKRELNAEKASTNSETNRGESEKKRNLGELSRTTSEDNEVFGEADANQNNGTSSQDTAVTDSKRTADPKNAWQDAHPADPGSRPHLIRLFSRDAPGREDNTFKDRPSESDELQTIQEDSAATSESLDVMASQKRPSQRHGSKYLATASTMDHARHGFLPRHRDTGILDSIGRFFGGDRGAPKRGSGKDSHHPARTAHYGSLPQKSHGRTQDENPVVHFFKNIVTPRTPPPSQGKGRGLSLSRFSWGAEGQRPGFGYGGRASDYKSAHKGFKGVDAQGTLSKIFKLGGRDSRSGSPMARR | dose dependence of serum cytokine secretion ([4]; 2 h after s.c. injection, 30-1000 μg): dose-dependent secretion of cytokines; cytokine secretion in the blood after acute treatment ([4]; single s.c. injection, FIG. 4 (MBP), FIG. 5 (ATX-MS-1467 100 μg/mouse)): induces the secretion of both pro and anti-inflammatory cytokines
